The values below are quoted from earlier work in patent US12419862B2, “Use of a cathepsin s inhibitor against the formation of anti-drug antibodies” (Hoffmann-La Roche Inc., priority 2018, dated 2025).

For the series the following is noted: current standard of care in IBD; cited from earlier work.

On to adalimumab, for which the reported immunogenicity rates is recorded as ≤ 26%. Take “infliximab: anti-TNFalpha antibody, known to be highly immunogenic”: the reported immunogenicity rates result is listed as “up to 51%”.
